# Experimental data published in US9023351.
# Where a chain is given by its changes, count along the chain named.
# B1: MOR06631 IgG (antibody, V domains shown)
# VH: QVQLVQSGAEVKKPGESLKISCKGSGYSFTNYWIGWVRQMPGKGLEWMGFIWPVDSWTQYSPSFQGQVTISADKSISTAYLQWSSLKASDTAMYYCARYGHGMYGGALDVWGQGTLVTVSS
# VL: DIVLTQSPATLSLSPGERATLSCRASQSVRSSRLAWYQQKPGQAPRLLIYGASKRATGVPARFSGSGSGTDFTLTISSLEPEDFATYYCQQYYDFPPTFGQGTKVEIK
# B2: MOR06638 IgG (antibody, V domains shown)
# VH: QVQLVQSGAEVKKPGASVKVSCKASGYTFTGNYINWVRQAPGQGLEWMGIINPHGGDTKYAQKFQGRVTMTRDTSISTAYMELSSLRSEDTAVYYCARWHHGTWIFDYWGQGTLVTVSS
# VL: DIVLTQPPSVSGAPGQRVTISCSGSSSNIGSNYVSWYQQLPGTAPKLLIYNDNQRPSGVPDRFSGSKSGTSASLAITGLQSEDEADYYCSSWDRADGSYVFGGGTKLTVL
# B3: MOR06643 IgG (antibody, V domains shown)
# VH: QVQLVESGGGLVQPGGSLRLSCAASGFTFSDYAMSWVRQAPGKGLEWVSAIMYDSSSTFYADSVKGRFTISRDNSKNTLYLQMNSLRAEDTAVYYCARINYIYKGVHFDYWGQGTLVTVSS
# VL: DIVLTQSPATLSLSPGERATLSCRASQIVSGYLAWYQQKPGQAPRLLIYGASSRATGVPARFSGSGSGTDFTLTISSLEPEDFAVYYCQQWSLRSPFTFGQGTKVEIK
# B4: MOR07265 IgG (antibody, V domains shown)
# VH: B1 VH
# VL: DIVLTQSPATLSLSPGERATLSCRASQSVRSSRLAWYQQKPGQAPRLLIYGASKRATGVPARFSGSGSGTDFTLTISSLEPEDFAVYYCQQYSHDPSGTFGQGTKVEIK
# B5: MOR06669 IgG (antibody, V domains shown)
# VH: B1 VH with F50I, V54I, W57F
# VL: B1 VL
# B6: MOR07111 IgG (antibody, V domains shown)
# VH: B1 VH with F50V, W52M, V54S, W57Y, Q59R
# VL: B1 VL with T86V, Y92F, D94S, F95K, P97I
# B7: MOR06642 IgG (antibody, V domains shown)
# VH: B1 VH with F50V, W52M, V54S, W57Y, Q59R
# VL: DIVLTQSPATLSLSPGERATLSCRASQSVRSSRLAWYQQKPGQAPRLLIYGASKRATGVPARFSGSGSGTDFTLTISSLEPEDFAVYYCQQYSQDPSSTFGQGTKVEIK
# Molecular target: human mesothelin (human, UniProt Q13421)
# Sequence (Q13421 other isoform, or with tags, fused parts or gaps): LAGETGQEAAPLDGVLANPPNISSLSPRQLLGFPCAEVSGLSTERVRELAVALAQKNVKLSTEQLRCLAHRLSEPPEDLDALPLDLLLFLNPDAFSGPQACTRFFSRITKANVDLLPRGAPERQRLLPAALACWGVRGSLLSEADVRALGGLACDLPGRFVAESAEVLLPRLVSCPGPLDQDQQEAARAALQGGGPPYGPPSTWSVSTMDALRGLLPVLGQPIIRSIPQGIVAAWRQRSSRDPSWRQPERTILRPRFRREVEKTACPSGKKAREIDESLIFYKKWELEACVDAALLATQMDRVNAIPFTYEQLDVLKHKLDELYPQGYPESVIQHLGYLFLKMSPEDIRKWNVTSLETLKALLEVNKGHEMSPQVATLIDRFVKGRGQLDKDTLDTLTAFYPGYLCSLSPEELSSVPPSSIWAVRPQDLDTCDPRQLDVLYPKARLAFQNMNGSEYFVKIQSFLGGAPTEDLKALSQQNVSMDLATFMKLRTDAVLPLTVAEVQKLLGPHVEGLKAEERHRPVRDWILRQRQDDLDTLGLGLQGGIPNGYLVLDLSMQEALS
# Assay: FACS, OVCAR-3 cells
row,Binder,EC50 [nM]
1,B1,0.96
2,B2,4.19
3,B3,1.86
4,B4,1.06
5,B5,1.4
6,B6,1.35
7,B7,0.54
